T1: human PAC1 receptor (human, UniProt P41586 24-468)
T1 sequence: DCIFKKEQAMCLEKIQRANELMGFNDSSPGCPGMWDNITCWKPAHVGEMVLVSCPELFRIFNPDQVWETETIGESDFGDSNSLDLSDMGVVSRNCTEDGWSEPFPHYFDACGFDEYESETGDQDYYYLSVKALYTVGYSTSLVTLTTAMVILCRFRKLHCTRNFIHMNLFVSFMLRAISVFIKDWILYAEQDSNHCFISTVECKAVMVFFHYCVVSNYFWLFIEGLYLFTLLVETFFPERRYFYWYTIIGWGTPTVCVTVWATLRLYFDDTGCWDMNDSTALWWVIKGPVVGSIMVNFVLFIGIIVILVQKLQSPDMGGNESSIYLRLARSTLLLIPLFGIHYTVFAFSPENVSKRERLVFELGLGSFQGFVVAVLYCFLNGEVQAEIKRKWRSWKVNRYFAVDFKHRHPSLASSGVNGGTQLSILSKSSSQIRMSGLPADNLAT


Columns and labels:
[1] = target: human CGRP receptor (human, UniProt Q16602 23-461; O60894 27-148); assay: cell-based or functional assay
[2] = target: T1, human PAC1 receptor; assay: cell-based or functional assay

Sequence of human CGRP receptor (Q16602 23-461 limits assumed, chain 1 of 2): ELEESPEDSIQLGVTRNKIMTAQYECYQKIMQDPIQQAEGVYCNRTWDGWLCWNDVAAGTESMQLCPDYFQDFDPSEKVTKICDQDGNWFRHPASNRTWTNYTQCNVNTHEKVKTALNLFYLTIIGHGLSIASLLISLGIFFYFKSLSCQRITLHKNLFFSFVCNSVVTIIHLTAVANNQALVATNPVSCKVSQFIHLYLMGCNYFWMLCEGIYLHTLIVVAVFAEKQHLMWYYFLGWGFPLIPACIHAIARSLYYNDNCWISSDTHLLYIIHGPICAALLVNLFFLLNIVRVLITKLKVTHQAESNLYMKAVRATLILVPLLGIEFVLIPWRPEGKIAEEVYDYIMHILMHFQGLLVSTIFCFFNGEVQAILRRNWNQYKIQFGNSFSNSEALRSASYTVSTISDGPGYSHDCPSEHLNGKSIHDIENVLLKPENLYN
Sequence of human CGRP receptor (O60894 27-148 limits assumed, chain 2 of 2): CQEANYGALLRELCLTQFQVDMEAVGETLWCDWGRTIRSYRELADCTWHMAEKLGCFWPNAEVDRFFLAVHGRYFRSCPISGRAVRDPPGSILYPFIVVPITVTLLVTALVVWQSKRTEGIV

Row | Binder | Fold-improvement over 4E4 Ab [1] [fold] | IC50 [1] [pM] | Fold-improvement over 29G4v22 Ab [2] [fold] | IC50 [2] [pM]
1 | iPS:454557 (5601) (bispecific antibody, human IgG1, kappa, lambda, N297G) light 1: QSVLTQPPSVSAAPGQKVTISCSGSYSNIGRYSVSWYQQLPGTAPKLLIYDNNKRPSGIPDRFSGSKSGTSATLGITGLQTGDEADYYCGTWDSRLSAVVFGGGTKLTVLGQPKAAPSVTLFPPSSEELQANKATLVCLISDFYPGAVTVAWKADSSPVKAGVETTTPSKQSNNKYAAKSYLSLTPEQWKSHRSYSCQVTHEGSTVEKTVAPTECS heavy 1: QVQLVESGGGVVQPGRSLRLSCAASGFTFSSFGMHWVRQAPGKGLEWVAVISFDGSIKYSVDSVKGRFTISRDNSKNTLFLQMNSLRAEDTAVYYCARDRLNYYESSGYYHYKYYGMAVWGQGTTVTVSSASTKGPSVFPLAPSSKSTSGGTAALGCLVKDYFPEPVTVSWNSGALTSGVHTFPAVLQSSGLYSLESVVTVPSSSLGTQTYICNVNHKPSNTKVDKKVEPKSCDKTHTCPPCPAPELLGGPSVFLFPPKPKDTLMISRTPEVTCVVVDVSHEDPEVKFNWYVDGVEVHNAKTKPCEEQYGSTYRCVSVLTVLHQDWLNGKEYKCKVSNKALPAPIEKTISKAKGQPREPQVYTLPPSRKEMTKNQVSLTCLVKGFYPSDIAVEWESNGQPENNYKTTPPVLKSDGSFFLYSKLTVDKSRWQQGNVFSCSVMHEALHNHYTQKSLSLSPGK light 2: EIVLTQSPATLSLSPGERATLSCRASKSVGRSLHWYQQKPGQAPRLLIKYASQSLSGIPARFSGSGSGTDFTLTISSLEPEDFAVYYCHQSSRLPFTFGPGTKVDIKRTVAAPSVFIFPPSDEQLKSGTASVVCLLNNFYPREAKVQWKVDNALQSGNSQESVTEQDSKDSTYSLESTLTLSKADYEKHKVYACEVTHQGLSSPVTKSFNRGEC heavy 2: not shown | 1.5 | 390 | 6.7 | 610
2 | iPS:454565 (5606) (bispecific antibody, human IgG1, kappa, lambda, N297G) light 1: QSVLTQPPSVSAAPGQKVTISCSGSYSNIGRYSVSWYQQLPGTAPKLLIYDNNKRPSGIPDRFSGSKSGTSATLGITGLQTGDEADYYCGTWDSRLSAVVFGGGTKLTVLGQPKAAPSVTLFPPSSEELQANKATLVCLISDFYPGAVTVAWKADSSPVKAGVETTTPSKQSNNKYAAKSYLSLTPEQWKSHRSYSCQVTHEGSTVEKTVAPTECS heavy 1: QVQLVESGGGVVQPGRSLRLSCAASGFTFSSFGMHWVRQAPGKGLEWVAVISFDGSIKYSVDSVKGRFTISRDNSKNTLFLQMNSLRAEDTAVYYCARDRLNYYESSGYYHYKYYGMAVWGQGTTVTVSSASTKGPSVFPLAPSSKSTSGGTAALGCLVKDYFPEPVTVSWNSGALTSGVHTFPAVLQSSGLYSLESVVTVPSSSLGTQTYICNVNHKPSNTKVDKKVEPKSCDKTHTCPPCPAPELLGGPSVFLFPPKPKDTLMISRTPEVTCVVVDVSHEDPEVKFNWYVDGVEVHNAKTKPCEEQYGSTYRCVSVLTVLHQDWLNGKEYKCKVSNKALPAPIEKTISKAKGQPREPQVYTLPPSRKEMTKNQVSLTCLVKGFYPSDIAVEWESNGQPENNYKTTPPVLKSDGSFFLYSKLTVDKSRWQQGNVFSCSVMHEALHNHYTQKSLSLSPGK light 2: EIVLTQSPATLSLSPGERATLSCRASKSVGRSLHWYQQKPGQAPRLLIKYASQSLSGIPARFSGSGSGTDFTLTISSLEPEDFAVYYCHQSSRLPFTFGPGTKVDIKRTVAAPSVFIFPPSDEQLKSGTASVVCLLNNFYPREAKVQWKVDNALQSGNSQESVTEQDSKDSTYSLESTLTLSKADYEKHKVYACEVTHQGLSSPVTKSFNRGEC heavy 2: not shown | 0.8 | 660 | 5.9 | 690

The next lines start with the values.

Row | Fold-improvement over 4E4 Ab [1] [fold] | IC50 [1] [pM] | Fold-improvement over 29G4v22 Ab [2] [fold] | IC50 [2] [pM] | Binder
3 | 1.2 | 470 | 5.5 | 740 | iPS:571015 (5603) (bispecific antibody, human IgG1, kappa, lambda, N297G) light 1: QSVLTQPPSVSAAPGQKVTISCSGSYSNIGRYSVSWYQQLPGTAPKLLIYDNNKRPSGIPDRFSGSKSGTSATLGITGLQTGDEADYYCGTWDSRLSAVVFGGGTKLTVLGQPKAAPSVTLFPPSSEELQANKATLVCLISDFYPGAVTVAWKADSSPVKAGVETTTPSKQSNNKYAAKSYLSLTPEQWKSHRSYSCQVTHEGSTVEKTVAPTECS heavy 1: QVQLVESGGGVVQPGRSLRLSCAASGFTFSSFGMHWVRQAPGKGLEWVAVISFDGSIKYSVDSVKGRFTISRDNSKNTLFLQMNSLRAEDTAVYYCARDRLNYYESSGYYHYKYYGMAVWGQGTTVTVSSASTKGPSVFPLAPSSKSTSGGTAALGCLVKDYFPEPVTVSWNSGALTSGVHTFPAVLQSSGLYSLESVVTVPSSSLGTQTYICNVNHKPSNTKVDKKVEPKSCDKTHTCPPCPAPELLGGPSVFLFPPKPKDTLMISRTPEVTCVVVDVSHEDPEVKFNWYVDGVEVHNAKTKPCEEQYGSTYRCVSVLTVLHQDWLNGKEYKCKVSNKALPAPIEKTISKAKGQPREPQVYTLPPSREKMTKNQVSLTCLVKGFYPSDIAVEWESNGQPENNYKTTPPVLKSDGSFFLYSKLTVDKSRWQQGNVFSCSVMHEALHNHYTQKSLSLSPGK light 2: EIVLTQSPATLSLSPGERATLSCRASKSVGRSLHWYQQKPGQAPRLLIKYASQSLSGIPARFSGSGSGTDFTLTISSLEPEDFAVYYCHQSSRLPFTFGPGTKVDIKRTVAAPSVFIFPPSDEQLKSGTASVVCLLNNFYPREAKVQWKVDNALQSGNSQESVTEQDSKDSTYSLESTLTLSKADYEKHKVYACEVTHQGLSSPVTKSFNRGEC heavy 2: not shown
4 | 1.1 | 510 | 2.8 | 2480 | iPS:454583 (bispecific antibody, human IgG1, kappa, lambda, N297G) light 1: QSVLTQPPSVSAAPGQKVTISCSGSYSNIGRYSVSWYQQLPGTAPKLLIYDNNKRPSGIPDRFSGSKSGTSATLGITGLQTGDEADYYCGTWDSRLSAVVFGGGTKLTVLGQPKAAPSVTLFPPSSEELQANKATLVCLISDFYPGAVTVAWKADSSPVKAGVETTTPSKQSNNKYAAKSYLSLTPEQWKSHRSYSCQVTHEGSTVEKTVAPTECS heavy 1: QVQLVESGGGVVQPGRSLRLSCAASGFTFSSFGMHWVRQAPGKGLEWVAVISFDGSIKYSVDSVKGRFTISRDNSKNTLFLQMNSLRAEDTAVYYCARDRLNYYESSGYYHYKYYGMAVWGQGTTVTVSSASTKGPSVFPLAPSSKSTSGGTAALGCLVKDYFPEPVTVSWNSGALTSGVHTFPAVLQSSGLYSLESVVTVPSSSLGTQTYICNVNHKPSNTKVDKKVEPKSCDKTHTCPPCPAPELLGGPSVFLFPPKPKDTLMISRTPEVTCVVVDVSHEDPEVKFNWYVDGVEVHNAKTKPCEEQYGSTYRCVSVLTVLHQDWLNGKEYKCKVSNKALPAPIEKTISKAKGQPREPQVYTLPPSRKEMTKNQVSLTCLVKGFYPSDIAVEWESNGQPENNYKTTPPVLKSDGSFFLYSKLTVDKSRWQQGNVFSCSVMHEALHNHYTQKSLSLSPGK light 2: EIVLTQSPATLSLSPGERATLSCRASKSVGWSLHWYQQKPGQAPRLLIKYASQSLSGIPARFSGSGSGTDFTLTISSLEPEDFAVYYCHQSSRLPFTFGPGTKVDIKRTVAAPSVFIFPPSDEQLKSGTASVVCLLNNFYPREAKVQWKVDNALQSGNSQESVTEQDSKDSTYSLESTLTLSKADYEKHKVYACEVTHQGLSSPVTKSFNRGEC heavy 2: not shown
5 | 0.41 | 1420 | 3.8 | 1270 | iPS:454569 (bispecific antibody, human IgG1, kappa, lambda, N297G) light 1: QSVLTQPPSVSAAPGQKVTISCSGSYSNIGRYSVSWYQQLPGTAPKLLIYDNNKRPSGIPDRFSGSKSGTSATLGITGLQTGDEADYYCGTWDSRLSAVVFGGGTKLTVLGQPKAAPSVTLFPPSSEELQANKATLVCLISDFYPGAVTVAWKADSSPVKAGVETTTPSKQSNNKYAAKSYLSLTPEQWKSHRSYSCQVTHEGSTVEKTVAPTECS heavy 1: QVQLVESGGGVVQPGRSLRLSCAASGFTFSSFGMHWVRQAPGKGLEWVAVISFDGSIKYSVDSVKGRFTISRDNSKNTLFLQMNSLRAEDTAVYYCARDRLNYYESSGYYHYKYYGMAVWGQGTTVTVSSASTKGPSVFPLAPSSKSTSGGTAALGCLVKDYFPEPVTVSWNSGALTSGVHTFPAVLQSSGLYSLESVVTVPSSSLGTQTYICNVNHKPSNTKVDKKVEPKSCDKTHTCPPCPAPELLGGPSVFLFPPKPKDTLMISRTPEVTCVVVDVSHEDPEVKFNWYVDGVEVHNAKTKPCEEQYGSTYRCVSVLTVLHQDWLNGKEYKCKVSNKALPAPIEKTISKAKGQPREPQVYTLPPSRKEMTKNQVSLTCLVKGFYPSDIAVEWESNGQPENNYKTTPPVLKSDGSFFLYSKLTVDKSRWQQGNVFSCSVMHEALHNHYTQKSLSLSPGK light 2: EIVLTQSPATLSLSPGERATLSCRASKSVGRSLHWYQQKPGQAPRLLIKYASQSLSGIPARFSGSGSGTDFTLTISSLEPEDFAVYYCHQSSRLPFTFGPGTKVDIKRTVAAPSVFIFPPSDEQLKSGTASVVCLLNNFYPREAKVQWKVDNALQSGNSQESVTEQDSKDSTYSLESTLTLSKADYEKHKVYACEVTHQGLSSPVTKSFNRGEC heavy 2: not shown
6 | 1.1 | 510 | 2.1 | 2650 | iPS:454585 (bispecific antibody, human IgG1, kappa, lambda, N297G) light 1: QSVLTQPPSVSAAPGQKVTISCSGSYSNIGRYSVSWYQQLPGTAPKLLIYDNNKRPSGIPDRFSGSKSGTSATLGITGLQTGDEADYYCGTWDSRLSAVVFGGGTKLTVLGQPKAAPSVTLFPPSSEELQANKATLVCLISDFYPGAVTVAWKADSSPVKAGVETTTPSKQSNNKYAAKSYLSLTPEQWKSHRSYSCQVTHEGSTVEKTVAPTECS heavy 1: QVQLVESGGGVVQPGRSLRLSCAASGFTFSSFGMHWVRQAPGKGLEWVAVISFDGSIKYSVDSVKGRFTISRDNSKNTLFLQMNSLRAEDTAVYYCARDRLNYYESSGYYHYKYYGMAVWGQGTTVTVSSASTKGPSVFPLAPSSKSTSGGTAALGCLVKDYFPEPVTVSWNSGALTSGVHTFPAVLQSSGLYSLESVVTVPSSSLGTQTYICNVNHKPSNTKVDKKVEPKSCDKTHTCPPCPAPELLGGPSVFLFPPKPKDTLMISRTPEVTCVVVDVSHEDPEVKFNWYVDGVEVHNAKTKPCEEQYGSTYRCVSVLTVLHQDWLNGKEYKCKVSNKALPAPIEKTISKAKGQPREPQVYTLPPSRKEMTKNQVSLTCLVKGFYPSDIAVEWESNGQPENNYKTTPPVLKSDGSFFLYSKLTVDKSRWQQGNVFSCSVMHEALHNHYTQKSLSLSPGK light 2: EIVLTQSPATLSLSPGERATLSCRASKSVGWSLHWYQQKPGQAPRLLIKYASQSLSGIPARFSGSGSGTDFTLTISSLEPEDFAVYYCHQSSRLPFTFGPGTKVDIKRTVAAPSVFIFPPSDEQLKSGTASVVCLLNNFYPREAKVQWKVDNALQSGNSQESVTEQDSKDSTYSLESTLTLSKADYEKHKVYACEVTHQGLSSPVTKSFNRGEC heavy 2: not shown
